The data set deals with the molecule itself. Nature of the data set: SEC-MALS. (In general: SEC sorts molecules by how far they enter the pores of the column.)

What is called stoichiometry N is the number of molecules, sites or subunits per partner or assembly.

B1: Lcl C-terminal domain (Lcl-CTD), residues 252 to 401 (domain or fragment)
chain: MAHHHHHHVDDDDKMETGQVLAKSNDLDFNTMWVDPANSGIRRQLGDKALGGTVIYVNALGTHGLVVANSDQVNSNTWWDAQDSITNPAHFDNEGKLYSDWRLPTRFELNLIYMMRNELGNFLAGNYWSSIEKSSANSWVFNSKTGEIKDIAKSKTAAVRAVRAF
As for B1, the “stoichiometry N” value was 3.

(Values after article doi:10.1101/2023.12.10.570962 (bioRxiv, 2023).)
